Measurements as given in publication PMC6239174.

Assays:
Slbp2-MBP [1] = target: T1, Slbp2-MBP (Danio rerio (zebrafish), UniProt A1L2F4 1-326); assay: EMSA
Slbp2-MBP [2] = target: T1, Slbp2-MBP; assay: competition EMSA

Row | Binder | binding result (Slbp2-MBP [1]) | binding result (Slbp2-MBP [2])
1 | AAAAAGGUUCUUUUAAGAACCACCCAUUUUU (structured_RNA) [h2a mRNA stem-loop (H2a SL) probe] | binds | 
2 | AAAAAGGUUCUUUUAAGAACCACCCAUUUUU (structured_RNA) [unlabeled H2a SL competitor] |  | binds
